Measured values as given in the supplement of paper PMC12042874.
± gives the uncertainty stated by the source.

Test: amyloid nucleation score (Sup35N fusion, yeast selection) (log enrichment); library NNK1; higher = more nucleation; inactive = no reads after selection
Outline: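 For the nucleation score, DiMSum gave the log enrichment of output over input reads, centred on the mode score of non-aggregating sequences. Psi-negative yeast expressing Sup35N fused to peptides of 20 random codons were induced with 100 μM copper sulfate for 24 hours and grown 7 days at 30°C on medium lacking adenine and uracil. Input and output plasmid inserts were Illumina-sequenced, and sequences with under 100 input reads were excluded.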

Substance | amyloid nucleation score
GWNHWADTSGTLGK | 0.502 ± 0.73
GWRSGVWLGSV | -1.32 ± 0.77
GWTIKSSYYG | -0.906 ± 1.4
GWWGHGFALRSFVLIAHLDV | 0.06 ± 0.72
GWYFPILRDLRNVGGVF | -0.677 ± 1.1
GWYFYG | 0.702 ± 0.32
GYARILKDLGYPFPYDLQHL | inactive
GYENGDGDERD | -0.403 ± 1.2
GYGAKWVLVVS | 1.25 ± 0.47
GYGIGDGRVHTQNKVGCYGG | 1.33 ± 0.66
GYIDFCFLWD | -0.333 ± 0.21
GYLQR | 0.158 ± 0.59
GYPIDGMYKRAALVRMDICF | 0.718 ± 0.92
GYPWVV | 0.993 ± 0.55
GYSCRVIWNTNWTALFT | inactive
GYSGGKLLVGGTYTRIV | 0.243 ± 0.43
GYWGPVFSGRCIPVNNK | -0.186 ± 1.5
HAAEGIDESRKHSRHLIIVW | 0.029 ± 0.34
HALMTARAFTCPWRMVVKFQ | 0.897 ± 0.61
HANISLRSWRFRYHCREFKG | 1.47 ± 0.2
HANLGFS | -0.742 ± 0.78
HCHFIFGGMIGS | -0.144 ± 1.2

Substance | amyloid nucleation score
HCINGCYNSEDVIIVDLLAF | inactive
HCPCGCYTPFLAKRMSSVLV | 0.362 ± 0.26
HCRYMMSRVILSCILARPQ | 2.55 ± 0.15
HDLEIPICTWEYSVVIQGLQ | 0.005 ± 1.4
HEFHRLDVAVYRG | -0.132 ± 0.29
HEPFDSDHTVARRETCLFGR | -0.928 ± 0.52
HEVWH | -0.379 ± 0.55
HFCFGC | 7.377 ± 0.062
HFGAYLVVM | -0.299 ± 0.35
HFNYNNTSMFSLTHSWHGIM | 4.71 ± 0.089
HFRDCVPYFMVSRSRGELGE | -0.42 ± 0.75
HFYFIYCSQIQVFKQV | 7.422 ± 0.065
HGIIHFVLQMW | 1.85 ± 0.49
HGLAYCGRQLFGARFILRYR | 0.255 ± 0.23
HGRLTYSDVVNVRTFPGLMK | -0.232 ± 0.25
HGRQE | 0.184 ± 1
HGSIQSV | inactive
HGYFSNMWSYRRYQLLKLSP | 0.664 ± 0.77
HHLVLQRD | 0.347 ± 0.28
HHMRCLGTLNNLCKCCFEER | 3.41 ± 0.11
HHNNDSDYKLREN | 0.116 ± 0.48
HHSYKYCKLAFWTRSSKWNR | 0.7 ± 0.71

Substance | amyloid nucleation score
HHWNLIEHYMLDECMEHLNS | -0.183 ± 0.31
HILSHFVSCSRYL | -0.09 ± 1.4
HILTMDLLPTPLSRQLRNMN | -0.763 ± 0.97
HISLHYYKICNRFDLYNKDS | 7.107 ± 0.065
HIYSRYQERRLVFVWYACND | 0.134 ± 0.38
HKDVQGYVD | 1.01 ± 0.97
HLCVTTGSSLL | -0.58 ± 0.98
HLFTGNAYRGTRMGKLVGSH | 0.328 ± 0.41
HLIDVTILGWDEVSIM | 1.26 ± 0.37
HLIWL | -0.203 ± 1.1
HLKHVWSYLPSSNVEEMQ | 0.766 ± 0.63
HLWLFAGYMLLLKPKLKVCT | -0.625 ± 0.41
HMLGKASGVLFNQRAVTGG | 0.696 ± 0.79
HMTLCRRGFISGQADYFVQ | 0.275 ± 1.2
HNCDYNCFNRGAHRVSEVGI | inactive
HNLDCKRVGSARTWIEWWVG | 0.07 ± 0.3
HNMHFSPWIKCNSVYEFSGR | 1.56 ± 0.73
HNQCHVKYDYHYL | -0.183 ± 0.78
HPSSKLSRMCLD | 0.717 ± 0.93
HQELMSFFLLCLH | inactive
HQLAFYRFCIASSCSWAYLS | 0.825 ± 0.41
HQTEEISKSSFFQCNMVQCW | 2.94 ± 0.071

Substance | amyloid nucleation score
HQVIQGVSYSTCG | 0.107 ± 0.38
HQVVRSFGELHLLWCRLDEG | 0.204 ± 0.45
HRAWAQVFFPELARSLVRSQ | 0.216 ± 0.6
HRILVGGFRSCVMT | 0.311 ± 0.32
HRRAFRQVVVTAGPKQASPM | 0.001 ± 0.56
HRRFLAPME | 0.385 ± 0.3
HRSRLFAISERFEDIFYI | 0.611 ± 0.78
HRTDYENFPSSKSRRMLVRV | 0.436 ± 1.2
HRWSDVFPWRTVKMYQLSRC | 0.552 ± 0.76
HSAALWIVWR | -0.358 ± 0.62
HSAITNCRRVVTALIYRRVM | -0.875 ± 2.4
HSALIQSIEGVINVGCGVKK | 1.25 ± 0.23
HSCYLYTSLLIFDMCRYWFL | 0.719 ± 0.48
HSFMYKENAGMSGTLR | 0.187 ± 0.48
HSHKGGWEWVSWLRREYWIA | 0.618 ± 0.47
HSIWSRERVVVGVIYVCNFN | 7.227 ± 0.048
HSLSWDNKLCLCSAN | 0.099 ± 0.3
HSMVFNLEWFKARQDGDLN | 1.5 ± 0.34
HSNCVLVVDMLAQWLMRAGD | 0.384 ± 0.79
HSVIIALRGCIRIG | 2.25 ± 0.15
